Results on 27 molecules are retold here after patent US9187525B2, “Methods of treating ophthalmic diseases using NPR-B agonists” (Shire Orphan Therapies GmbH, dated 2015).

Numbered stars: 1 amine (or outer) side, 2 acyl side, 3 side chain; on linkers, the order of the positions; unused ones are H or OH. Square brackets hold non-standard residues; d marks the D form. Ends that are not written are not given here. * marks the point of attachment. Pro(trans-4-NH2) = O=C([C@@H]1C[C@@H](N[*:3])CN1[*:1])[*:2]; Sni = (S)-nipecotic acid, O=C([C@H]1CCCN([*:1])C1)[*:2]; cPrCO(1-aminomethyl) = O=C(C1(CN[*:1])CC1)[*:2]; Hyp = O=C(O)[C@@H]1C[C@@H](O)CN1; dTle = CC(C)(C)[C@@H](N)C(=O)O; NMeL = CN[C@@H](CC(C)C)C(=O)O; Chg = N[C@H](C(=O)O)C1CCCCC1; NMeK = CN[C@@H](CCCCN)C(=O)O; orn(Me2) = not defined here; Nle = CCCC[C@H](N)C(=O)O; Octanoyl = CCCCCCCC(=O)*; dAbu = CC[C@@H](N)C(=O)O; 1270 = not defined here; 1860 = not defined here; 2797 = not defined here; 3806 = not defined here; 4956 = not defined here; 504 = not defined here; 559 = not defined here; 565 = not defined here; 933 = not defined here; leu = not defined here; Ac3c = NC1(C(=O)O)CC1; Occ = octanoic acid

In this experiment the target is T1, natriuretic peptide receptor-B (human).
T1 chain: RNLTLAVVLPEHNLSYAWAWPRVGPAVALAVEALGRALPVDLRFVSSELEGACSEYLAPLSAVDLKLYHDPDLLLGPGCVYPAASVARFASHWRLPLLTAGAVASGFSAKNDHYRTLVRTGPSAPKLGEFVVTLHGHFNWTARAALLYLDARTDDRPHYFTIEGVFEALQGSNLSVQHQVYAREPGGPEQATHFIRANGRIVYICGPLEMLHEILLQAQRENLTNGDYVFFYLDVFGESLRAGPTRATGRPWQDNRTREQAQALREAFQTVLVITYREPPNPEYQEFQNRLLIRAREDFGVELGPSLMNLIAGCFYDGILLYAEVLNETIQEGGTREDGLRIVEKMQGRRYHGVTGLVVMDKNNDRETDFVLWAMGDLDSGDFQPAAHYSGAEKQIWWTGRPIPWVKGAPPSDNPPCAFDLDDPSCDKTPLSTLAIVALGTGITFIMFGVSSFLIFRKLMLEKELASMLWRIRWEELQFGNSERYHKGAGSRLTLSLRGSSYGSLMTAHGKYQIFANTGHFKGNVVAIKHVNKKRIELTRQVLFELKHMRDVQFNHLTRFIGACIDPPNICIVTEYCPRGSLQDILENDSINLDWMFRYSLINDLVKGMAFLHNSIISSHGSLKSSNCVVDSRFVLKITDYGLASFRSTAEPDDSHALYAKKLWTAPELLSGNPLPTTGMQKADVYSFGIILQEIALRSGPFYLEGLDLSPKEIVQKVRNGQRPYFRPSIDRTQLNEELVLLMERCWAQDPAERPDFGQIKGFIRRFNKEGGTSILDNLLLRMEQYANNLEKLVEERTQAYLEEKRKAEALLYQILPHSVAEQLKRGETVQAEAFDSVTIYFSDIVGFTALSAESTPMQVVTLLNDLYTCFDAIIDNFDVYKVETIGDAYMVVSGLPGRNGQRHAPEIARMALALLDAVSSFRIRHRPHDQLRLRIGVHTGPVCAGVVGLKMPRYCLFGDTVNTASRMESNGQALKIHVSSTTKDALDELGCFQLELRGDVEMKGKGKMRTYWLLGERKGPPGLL
Description: cell-based or functional assay.

Turning to Octanoyl-[dA][dA]FGLK[Nle]DRI-NH2 [JAL-0775], the “EC50 group, cGMP in GTM-3 cells” value is at most 15 µM.

B1: JAL-0791 (peptide)
peptide: Octanoyl-AAFGLKLDR[559]
modifications: not fully specified (some residues); printed as Occ-ala-ala-Phe-Gly-Leu-Lys-Leu-Asp-Arg-559; reading uncertain
With B1, the “EC50 group, cGMP in GTM-3 cells” value is at most 15 µM.

B2: JAL-0786 (peptide)
peptide: 933-AFGLKLDRI-NH2
modifications: not fully specified (some residues); printed as 933-ala-Phe-Gly-Leu-Lys-Leu-Asp-Arg-Ile-NH2; reading uncertain
As to B2, the “EC50 group, cGMP in GTM-3 cells” value was at most 15 µM.

As to [Occ][Ac3c]FGLKLDRI-NH2 [JAL-0761], the “EC50 group, cGMP in GTM-3 cells” value is at most 15 µM.

B3: JAL-0789 (peptide)
peptide: Octanoyl-AAFGLKLDR[1860]
modifications: not fully specified (some residues); printed as Occ-ala-ala-Phe-Gly-Leu-Lys-Leu-Asp-Arg-1860; reading uncertain
Turning to B3, the “EC50 group, cGMP in GTM-3 cells” value was at most 5 µM. With Octanoyl-[dAbu]FGLKLDRI-NH2 [JAL-0762], the “EC50 group, cGMP in GTM-3 cells” value was at most 15 µM.

B4: JAL-0769 (peptide)
peptide: Octanoyl-[dA][dA]FGLKLDRI-NH2
modifications: not fully specified (some residues); printed as Occ-ala-ala-Phe-Gly-Leu-Lys-leu-Asp-Arg-Ile-NH2
As for B4, the “EC50 group, cGMP in GTM-3 cells” value was at most 15 µM. The result for Octanoyl-[dV]FGLKLDRI-NH2 [JAL-0756] reads at most 15 µM; that for [Occ][dTle]FGLKLDRI-NH2 [JAL-0758], at most 15 µM. Under Octanoyl-[dA][dA]FGLK[NMeL]DRI-NH2 [JAL-0776] stands at most 15 µM.

B5: JAL-0788 (peptide)
peptide: 4956-AFGLKLDRI-NH2
modifications: not fully specified (some residues); printed as 4956-ala-Phe-Gly-Leu-Lys-Leu-Asp-Arg-Ile-NH2; reading uncertain
For the molecule B5, the “EC50 group, cGMP in GTM-3 cells” value is at most 15 µM. The result for Octanoyl-[dA][dA]FGLK[Chg]DRI-NH2 [JAL-0772] reads at most 15 µM.

B6: JAL-1931 (peptide)
peptide: [Occ][Sni]F[orn(Me2)]L[Hyp][NMeL]DRI-OH
modifications: reading uncertain; also: printed as Occ-Sni-Phe-orn(Me2)-Leu-Hyp-Nml-Asp-Arg-Ile-OH
B6: the “EC50 group, cGMP in GTM-3 cells” value was at most 5 µM.

B7: JAL-0787 (peptide)
peptide: 1270-AFGLKLDRI-NH2
modifications: not fully specified (some residues); printed as 1270-ala-Phe-Gly-Leu-Lys-Leu-Asp-Arg-Ile-NH2; reading uncertain
For B7, the “EC50 group, cGMP in GTM-3 cells” value was at most 15 µM. Under Octanoyl-[dA][dA]FGLKLDR[565] (reading uncertain; also: printed as Occ-ala-ala-Phe-Gly-Leu-Lys-Leu-Asp-Arg-565) [JAL-0752] stands at most 5 µM; under Octanoyl-[dA][dA]FGLKIDRI-NH2 [JAL-0770], at most 15 µM; under [Occ][cPrCO(1-aminomethyl)]FGLKLDRI-NH2 [JAL-0760], at most 15 µM.

With Octanoyl-[dS]FGLKLDRI-NH2 [JAL-0763], the “EC50 group, cGMP in GTM-3 cells” value was at most 15 µM.

On to [Occ][Sni]F[leu]L[Hyp][NMeL]TRI-NH2 (reading uncertain; also: printed as Occ-Sni-Phe-leu-Leu-Hyp-Nml-Thr-Arg-Ile-NH2) [JAL-1932], for which the “EC50 group, cGMP in GTM-3 cells” value was at most 1 µM.

B8: JAL-0790 (peptide)
peptide: Octanoyl-AAFGLKLDR[504]
modifications: not fully specified (some residues); printed as Occ-ala-ala-Phe-Gly-Leu-Lys-Leu-Asp-Arg-504; reading uncertain
As for B8, the “EC50 group, cGMP in GTM-3 cells” value was at most 15 µM.

B9: JAL-0771 (peptide)
peptide: XAAFGLKVDRI
modifications: not fully specified (residue 1, C-terminus); printed as Occ-ala-ala-Phe-Gly-Leu-Lys-Val-Asp-Arg-Ile-NH2
In the case of B9, the “EC50 group, cGMP in GTM-3 cells” value is at most 15 µM.

B10: JAL-0754 (peptide)
peptide: Octanoyl-[dA][dA]FGLKLDR[2797]
modifications: reading uncertain; also: printed as Occ-ala-ala-Phe-Gly-Leu-Lys-Leu-Asp-Arg-2797
B10: the “EC50 group, cGMP in GTM-3 cells” value is at most 5 µM.

B11: JAL-0751 (peptide)
peptide: Octanoyl-[dA][dA]FGLKLDR[3806]
modifications: reading uncertain; also: printed as Occ-ala-ala-Phe-Gly-Leu-Lys-Leu-Asp-Arg-3806
Consider B11, for which the “EC50 group, cGMP in GTM-3 cells” value is at most 15 µM. Regarding Octanoyl-[dA][dA]FGLPLDRI-NH2 [JAL-0781_01], the “EC50 group, cGMP in GTM-3 cells” value is at most 5 µM.

B12: JAL-1935 (peptide)
peptide: [Occ][Sni]F[leu]LX[NMeL]DRI-NH2
modifications: not fully specified (residue 6); printed as Occ-Sni-Phe-leu-Leu-Tap(Asp(-))-Nml-Asp-Arg-Ile-NH2
With B12, the “EC50 group, cGMP in GTM-3 cells” value is at most 5 µM.

B13: JAL-0782 (peptide)
peptide: Octanoyl-AAFGL[NMeK]LDRI-NH2
modifications: not fully specified (some residues); printed as Occ-ala-ala-Phe-Gly-Leu-Nmk-Leu-Asp-Arg-Ile-
B13: the “EC50 group, cGMP in GTM-3 cells” value was at most 15 µM.

B14: JAL-1936 (peptide)
peptide: [Occ][Sni]F[orn(Me2)]L[Pro(trans-4-NH2)][NMeL]DRI-NH2
modifications: reading uncertain; also: printed as Occ-Sni-Phe-orn(Me2)-Leu-Tap-Nml-Asp-Arg-Ile-NH2
Regarding B14, the “EC50 group, cGMP in GTM-3 cells” value was at most 1 µM.
